According to PMC6953907:

What was measured:
[1] = target: T1, DDX17 Core WT (human, UniProt Q92841-1 32-477); test: X-ray crystallography
[2] = target: T1, DDX17 Core WT; test: X-ray crystallography; remark: listed apart in the source
[3] = target: T1, DDX17 Core WT; test: EMSA

T1 sequence (Q92841 111-556): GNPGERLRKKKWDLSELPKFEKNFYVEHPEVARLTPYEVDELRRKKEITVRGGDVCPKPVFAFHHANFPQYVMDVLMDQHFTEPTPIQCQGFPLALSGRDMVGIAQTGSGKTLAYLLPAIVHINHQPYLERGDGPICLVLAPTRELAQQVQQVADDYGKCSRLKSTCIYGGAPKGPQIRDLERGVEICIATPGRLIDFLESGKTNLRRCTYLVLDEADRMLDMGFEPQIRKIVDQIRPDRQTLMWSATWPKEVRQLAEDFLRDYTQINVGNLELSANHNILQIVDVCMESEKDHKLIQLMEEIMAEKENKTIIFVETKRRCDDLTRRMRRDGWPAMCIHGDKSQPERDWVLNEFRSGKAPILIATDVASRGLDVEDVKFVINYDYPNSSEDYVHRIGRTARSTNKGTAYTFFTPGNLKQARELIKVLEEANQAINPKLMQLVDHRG

Row | Binder | binding result [1] | further results
1 | CACACACCUG (ssRNA) [125a-oligo1] | binds | –
2 | UUUUUUUUUU (ssRNA) [rU10] | – | binding result [2]: binds
3 | AAAAAAAAAA (ssRNA) [rA10] | – | binding result [3]: no binding
4 | ACACACCUGG (ssRNA) [125a-oligo2] | binds | –
5 | AUUCAUCCAA (ssRNA) [18a-oligo1] | binds | –
